Data as given in patent US8492329B2, “Bioactive peptides and methods of using same” (Compugen Ltd., priority 2007, dated 2013).
Entries after “also recorded” stand apart in the source; their conditions may differ. No end group written: not given here.

Assays:
[1] = target: T1, LGR5 (Homo sapiens, UniProt O75473); assay: cAMP accumulation in CHO-K1 cells transiently transfected with LGR5; format: cell-based; conditions: 1 uM, pre-treatment with Forskolin, FIG. 3B
T1 construct: expressed in transfected cells; host or cells: CHO-K1 (transient)
T1 sequence (O75473 22-907): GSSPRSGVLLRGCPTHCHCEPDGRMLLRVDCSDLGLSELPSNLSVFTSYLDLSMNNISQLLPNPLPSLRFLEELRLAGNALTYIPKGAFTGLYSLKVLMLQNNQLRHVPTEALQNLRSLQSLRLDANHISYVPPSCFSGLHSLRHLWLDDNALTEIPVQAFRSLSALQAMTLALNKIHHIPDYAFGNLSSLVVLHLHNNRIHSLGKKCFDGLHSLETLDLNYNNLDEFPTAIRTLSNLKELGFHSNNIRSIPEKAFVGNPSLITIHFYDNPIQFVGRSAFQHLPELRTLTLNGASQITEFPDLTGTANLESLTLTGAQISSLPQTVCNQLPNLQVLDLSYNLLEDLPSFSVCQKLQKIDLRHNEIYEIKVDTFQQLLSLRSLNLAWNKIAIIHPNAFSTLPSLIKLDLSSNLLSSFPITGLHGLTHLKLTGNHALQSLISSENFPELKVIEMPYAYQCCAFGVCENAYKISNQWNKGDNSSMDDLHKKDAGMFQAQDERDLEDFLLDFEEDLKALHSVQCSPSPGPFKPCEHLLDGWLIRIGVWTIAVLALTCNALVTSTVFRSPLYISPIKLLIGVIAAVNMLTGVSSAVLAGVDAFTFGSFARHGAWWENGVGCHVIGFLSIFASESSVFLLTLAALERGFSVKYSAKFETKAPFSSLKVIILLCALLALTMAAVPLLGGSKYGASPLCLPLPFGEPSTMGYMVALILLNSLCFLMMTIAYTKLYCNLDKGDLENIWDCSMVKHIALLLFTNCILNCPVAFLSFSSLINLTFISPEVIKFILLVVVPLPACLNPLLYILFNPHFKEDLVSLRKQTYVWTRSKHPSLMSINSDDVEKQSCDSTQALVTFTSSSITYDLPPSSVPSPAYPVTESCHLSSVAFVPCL
Experimental: [The procedure below names another target; the source says it served here with some conditions changed.] (§1) LGR7 (RXFP1) or LGR8 (RXFP2) were transiently transfected into CHO-K1 cells as follows: Cells (12 million) were plated into T75 flasks on the day preceding transfection. Cells were transfected with a GPCR DNA and Gα16 using a lipid technique according to the manufacturer's recommendation. Cells were transfected for 5 hours, then re-plated into 96-well dishes (60,000 cells per well) and grown overnight. Transfected cells were plated into 24 wells of a 96-well plate. Cells were pre-treated with 0.5 mM IBMX (stimulation buffer) for 10 min at 37° C., then stimulated with either a positive control (Relaxin 2) or a candidate peptide (for Gs functional examination), followed by stimulation or a preincubation with 10 μM forskolin (for Gi functional examination). Following a 20 minutes stimulation by incubation with 1 μM of either positive control or the tested peptides, either with or without forskolin, intracellular cAMP was assayed using the Hit Hunter cAMP kit (DiscoveRx Corporation) according to the manufacturer's recommended protocol. Data was converted to nmol of cAMP by running a standard cAMP curve.

[2] = target: T2, LGR7 (RXFP1) (Homo sapiens, UniProt Q9HBX9); assay: cAMP accumulation (Hit Hunter cAMP kit) in CHO-K1 cells transiently transfected with LGR7; format: cell-based; parameters: expressed in transfected cells; host or cells: CHO-K1 (transient); conditions: for cAMP inhibition (Gi) effect: 1 uM, LGR7 CHO-K1 cells pre-treated with 10 uM Forskolin, FIG. 1; for cAMP dose response with Forskolin / Gs (cAMP increase) dose response without Forskolin: LGR7; for cAMP dose response with Forskolin: 10 uM Forskolin, 1 nM to 10 uM, FIG. 4A; for Gs (cAMP increase) dose response without Forskolin: low concentrations 3-100 nM, FIG. 4B
T2 sequence (Q9HBX9 1-757): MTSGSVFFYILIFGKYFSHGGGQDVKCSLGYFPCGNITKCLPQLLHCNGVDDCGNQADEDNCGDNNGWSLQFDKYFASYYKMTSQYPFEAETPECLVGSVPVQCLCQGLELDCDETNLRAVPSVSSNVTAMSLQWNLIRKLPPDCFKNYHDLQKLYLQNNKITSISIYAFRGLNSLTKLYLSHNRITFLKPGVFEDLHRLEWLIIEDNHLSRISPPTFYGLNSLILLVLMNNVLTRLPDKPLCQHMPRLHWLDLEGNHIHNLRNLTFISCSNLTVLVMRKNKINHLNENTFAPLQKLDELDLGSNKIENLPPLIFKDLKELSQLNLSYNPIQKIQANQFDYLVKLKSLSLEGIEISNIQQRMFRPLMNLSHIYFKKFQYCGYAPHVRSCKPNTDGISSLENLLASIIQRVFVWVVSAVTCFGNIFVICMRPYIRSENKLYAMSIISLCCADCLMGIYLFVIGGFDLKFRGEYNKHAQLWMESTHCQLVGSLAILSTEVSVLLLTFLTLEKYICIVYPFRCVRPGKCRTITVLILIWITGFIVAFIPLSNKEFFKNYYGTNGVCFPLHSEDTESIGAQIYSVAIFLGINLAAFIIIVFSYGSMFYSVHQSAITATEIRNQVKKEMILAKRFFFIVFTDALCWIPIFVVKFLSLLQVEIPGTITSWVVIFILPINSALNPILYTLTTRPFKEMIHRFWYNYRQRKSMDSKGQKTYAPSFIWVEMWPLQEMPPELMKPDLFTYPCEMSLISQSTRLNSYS
Experimental: The ability of Peptides to affect cAMP concentration was examined in CHO-K1 cells transiently transfected with LGR7 (RXFP1) or LGR8 (RXFP2). The experiment measured cAMP concentration in response to the addition of the peptides.
as §1
Relaxin was used as a positive control. cAMP level was elevated by pre-treatment with forskolin.
The transfected CHO-K1 cells were treated with 10 uM of Forskolin (Applied cell sciences (ACS)) for 10 minutes and then challenged with 1 uM of H2 Relaxin (ACS) (as a positive control), 1 uM of Peptide P59C13V (P59) (SEQ ID NO: 6), and Peptide P74C13V (P74) (SEQ ID NO: 10).
CHO-K1 cells transiently transfected with LGR7 (RXFP1) were treated with 10 uM of Forskolin for 10 minutes and then challenged with either H2 Relaxin (as a positive control), P59C13V (P59) (SEQ ID NO: 6) or P74C13V (P74) (SEQ ID NO: 10) at increasing concentrations, from 1 nm to 10 uM (FIG. 4A) and from 3 nM to 100 nM (FIG. 4B). cAMP concentrations were determined at each point, as described above with (FIG. 4A) or without (FIG. 4B) the presence of Forskolin.

| Substance | Gi effect (decrease in cAMP accumulation) [1] | cAMP inhibition (Gi) effect [2] | cAMP dose response with Forskolin [2] | Gs (cAMP increase) dose response without Forskolin [2] |
| --- | --- | --- | --- | --- |
| GQKGQVGPPGAAVRRAYAAFSV [Peptide P59C13V] | significant Gi effect; also recorded: slight Gi activation | clear cAMP inhibition (Gi) effect | bell-shaped curve | dose dependent increase in cAMP |
| GQKGQVGPPGAAVRRAYAAFSVGRRAYAAFSV-OH [Peptide P74C13V] | significant Gi effect; also recorded: slight Gi activation | clear cAMP inhibition (Gi) effect | no significant effect |  |
| H2 Relaxin: H2 Relaxin (ACS), positive control, known ligand of LGR7 (RXFP1) [reference compound] |  | affected only the LGR7 (RXFP1) receptor | dose dependent decrease (Gi) effect | dose dependent increase in cAMP |
